The IC50 is the concentration that inhibits the measured activity by half. The low end stands for greater potency in that assay, the high end for weaker potency in that assay.

A value given as a limit tells only on which side of the number the result lay.

The first assay has as its target Human DR5-ECD long form polypeptide (human). In words: phage competition ELISA (Comp/DR5 ECD).
Details: not given
(In general: ELISA stands for enzyme-linked immunosorbent assay.)
As for GEVCLTSCSALR (phage-displayed) [R10A], the IC50 came out at 9.8 nM. This counts as single-digit nanomolar.
The same measure, in the same setting: the value for GEVCLTLCSKLT (displayed on phage) [LB956] was 35.3 nM; that for FEQGEVCMTLCEKLM (phage-displayed) [3H858-1] was 83.3 nM.
On the same count and under the same terms, the value for EVCMTSCEKLMSAL (phage-displayed) [LB845] was 39.2 nM; that for GEACLTSCSRLR (phage-displayed) [V3A] was 9.8 nM; that for ESRGEVCLTSCERLR (phage-displayed) [871-31-S3] was 14.9 nM.
Take CVAMTTCDKLRECMAI (phage-displayed) [2Hd7-3]: the IC50 amounted to 49 nM. This IC50 lies about 3.3-fold higher than the previous one.
The molecule CVAMTTCSKLRQCLSA (phage-displayed) [2Hd7-1] showed an IC50 of 4.9 nM.
For GEVCLTSCERLR (phage-displayed) [LB882], the IC50 came out at 14.9 nM.
In turn, EVCMTSCEKLMS (displayed on phage) [LB847] yielded an IC50 of 735 nM.
With CVAMTSCEKLRSCLLL (displayed on phage) [2Hd7-2], the IC50 worked out at 19.6 nM.
GEVCLTECSKLR (displayed on phage) [LB959] returned a concentration for half-maximal inhibition (IC50) of 23.5 nM.
EVCMTSCDRLKQAFLL (phage-displayed) [2H9-15] showed an IC50 of 78.4 nM.
Same read-out and setting: for EVCMTSCEKLMSA (displayed on phage) [LB846] the value was 49 nM; for GEVCLTLCSRLT (displayed on phage) [LB953], 23.5 nM.
EVCMTSCEKLM (phage-displayed) [LB848] showed an IC50 of 29400 nM.
On the same count and under the same terms, for CVAMTTCEKLRLCQSL (phage-displayed) [2Hd7-7] the value was 6.9 nM; for GRVCLTLCSKLR (phage-displayed) [LB954], 23.5 nM; for GEVCLTLCSKLR (displayed on phage) [LB952], 424 nM.
Same read-out and setting: for QEVCMTSCDKLMKANWMAAM (phage-displayed) [LB867] the value was 29.4 nM; for GEVCLTSCDRLR (phage-displayed) [LB937], 11.9 nM.
Molecule GEVCLTSCARLR (phage-displayed) [S9A] registered an IC50 of 12.7 nM.
GEVCLTECSKLT (phage-displayed) [LB963] returned an IC50 of 11.8 nM. The IC50 values of the last two molecules are within 1.5-fold of each other.
On to CVAMTSCDKLRLCQLL (phage-displayed) [2Hd7-20], for which the IC50 was found to be 29 nM.
Same read-out and setting: the value for RLPGEVCLTSCERLL (phage-displayed) [871-4-S3] was 149 nM; that for VEAGEVCLTLCEKLM (phage-displayed) [3H857-13] was 167 nM; that for EVCMTSCEKLMSALSL (phage-displayed) [2H9-13] was 79.1 nM.
In turn, GEVCLTTCSRIR (phage-displayed) [LB933] came in with an IC50 of 23.8 nM.
GEVCLTMCSRLR (displayed on phage) [LB935] registered an IC50 of 4.5 nM. This IC50 is about 5.3-fold lower than that of the molecule before.
GEVCLTECSRLT (phage-displayed) [LB960]: the IC50 was found to be 17.6 nM.
The molecule GEVCLTLCSRLR (phage-displayed) [LB934] displayed an IC50 of 3 nM.
Regarding GEVCLTSCERIR (displayed on phage) [LB936], the IC50 was determined as 9 nM.
GEVCLTSCSRIR (displayed on phage) [LB938] yielded an IC50 of 11.9 nM.

For the next assay the target is unchanged. In words: phage competition ELISA, cross-reactivity.
Details: not given
As for GEVCLTLCSKLT (displayed on phage) [LB956], the IC50 amounted to 35.3 nM.
In the case of GEVCLTECSKLR (displayed on phage) [LB959], the IC50 is 23.5 nM.
GEVCLTLCSRLT (displayed on phage) [LB953] displayed an IC50 of 23.5 nM.
In turn, GRVCLTLCSKLR (phage-displayed) [LB954] showed an IC50 of 23.5 nM.
For the molecule GEVCLTLCSKLR (displayed on phage) [LB952], the IC50 was 424 nM.
The same measure, in the same setting: for GEVCLTECSKLT (phage-displayed) [LB963] the value was 11.8 nM; for GEVCLTECSRLT (phage-displayed) [LB960], 17.6 nM.

In the next assay the target is T1, Hu DR5 ECD (SEQ ID NO: 105) (Homo sapiens, UniProt O14763, A67V/E190F/V191A).
T1 construct: Human DR5-ECD long form polypeptide
In words: Phage competition Ic50 ELISA (phagemid binding assay), competitor DR5 ECD. The note with it: Positive clones, competitor DR5 ECD (Comp/DR5 EcD). On the procedure: The Apo-2L receptor binding peptides disclosed herein were identified from the bacteriophage peptide library constructs shown in Tables I and II using the following phagemid binding assay.
1. Coat microtiter plate wells with 80 ul of 1 ug/ml Apo-2L receptor DR5 ECD (SEQ ID NO: 105) (in 50 mM sodium carbonate pH 9.6) at 4° C. overnight.
2. Remove coat and block with 200 ul PBS/0.1% BSA. Incubate 1 hour at room temperature.
3. Prepare competing receptor solutions (100 ul/sample).
Dispense SOul binding buffer to row H through B in a new non-sticky 96-well plate.
Dispense 75 ul competing receptor solution to row A.
Make 3-fold serial dilutions by transferring 25 ul solution along columns except for row H (use fresh tip set for each transfer).
4. Prepare appropriate subsaturating phage dilution (predetermined from phage dilution series).
Transfer 50 ul of phage diluent to each microtiter well of the non-sticky plate. Start at row H then G,F,E,D,C,B,A respectively.
Incubate at R.T. for 2 hours.
5. Shake block off plate which has been coated with DR5 ECD (SEQ ID NO: 105) and rinse 10 times with PBS+0.05% tween 20.
6. Transfer 80 ul the mixture of competing receptor and phage from the non-sticky plate to DR5 ECD coated plate and incubate 20 minutes at room temperature.
7. Make a 1:5000 dilution of HRP conjugate anti-M13 monoclonal Ab (Amersham Pharmacia Biotech) into binding buffer.
Rinse plate 10 times with PBS/tween20 (be thorough here to remove vast excess of non displaying phage).
Add 80 ul of Ab diluent to row H through A.
8. Mix TMB peroxidase substrate and peroxidase solution B at equal volume.
Rinse plate 10 times with PBS/tween20.
Add 80 ul of substrate to row H through A.
Incubate as required to develop and stop with 80 ul 2.5M H2SO4.
A number of bacteriophage clones expressing peptides of interest were generated using the above methods and then purified using limiting dilution. In order to further characterize specific clones of interest (e.g. to determine Ic 50 values), phage clones were grown and then purified using a polyethylene glycol based method as described in Sidhu et al., Methods Enzymol. 328, 333-363 (2000). Alternative methods for generating and purifying bacteriophages are also known in the art. See, e.g. Current Protocols In Molecular Biology, Volume 1, Units 1, 5 and 6, Frederick M. Ausubel et al. eds., 1995.
Phage clones identified using the above methods were grown and then purified using the following polyethylene glycol based method. Briefly, a bacterial culture infected with a phage clone of interest is grown under conditions favorable to phage growth and then centrifuged for 10 min at 2° C. and 16,000 g. The supernatant is then transferred to a fresh centrifuge tube and a 1/5 volume of PEG-NaCl (PEG 8000 (200 g/L), NaCl (146 g/L), autoclaved) is added. The mixture is then incubated for 5 minutes at room temperature. The mixture is then centrifuged as above and the supernatant decanted. The supernatant is then respun briefly and the remaining supernatant removed. The phage pellet is then resuspended in 1/20 volume of PBS (or other analogous buffer). Insoluble matter is then pelleted by centrifugation. The supernatant containing the purified phage is saved and used in assays such as Ic 50 and Ec 50 assays that are described in the following examples.
In the Tables provided herein, “Ic 50” refers to the measure of the concentration of peptide needed to inhibit 50% of Apo-2L (e.g. amino acids 114 to 281 of SEQ ID NO: 1) binding to an Apo-2L receptor molecule (e.g. DR4-IgG (SEQ ID NO: 108) or DR5 ECD (SEQ ID NO: 105) etc.). The peptides are classified such that class 1-class 4 represent a, b, c, and d respectively.
In turn, E2A (GAVCLTSCSRLR) [Peptide E2A] registered an IC50 of 49 nM.
“2Hd7-1 (CVAMTTCSKLRQCLSA) [Peptide 2Hd7-1]” registered an IC50 of 4.9 nM.
The same measure, in the same setting: the value for “2Hd7-3 (CVAMTTCDKLRECMAI) [Peptide 2Hd7-3]” was 49 nM; that for “2H9-15 (EVCMTSCDRLKQAFLL) [Peptide 2H9-15]” was 78.4 nM; that for “3H858-2 (IRVGEVCMTTCEKLM) [Peptide 3H858-2]” was 66.7 nM.
LB940 (GEVCLTSCSRLK) had an IC50 of over 100 nM.
Still for that read-out and setting: the value for LB936 (GEVCLTSCERIR) was 9 nM; that for LB939 (GEVCLTSCSRVR) was over 100 nM.
With G1A (AEVCLTSCSRLR) [Peptide G1A], the IC50 was found to be 9.8 nM.
Take “930-S8-4 (AVGEVCLTECSRLIQR) [Peptide 930-S8-4]”: the IC50 is 11.2 nM.
Still for that read-out and setting: the value for “871-31-S3 (ESRGEVCLTSCERLR) [Peptide 871-31-S3]” was 14.9 nM; that for “2Hd7-20 (CVAMTSCDKLRLCQLL) [Peptide 2Hd7-20]” was 29 nM.
As for LB931 (GEVCMTSCSRLR), the IC50 is over 100 nM.
In turn, LB933 (GEVCLTTCSRIR) came in with an IC50 of 23.8 nM.
Turning to LB932 (GEVCLSSCSRLR), the IC50 is over 100 nM.
Molecule “Hd5-10: first generation (G1) peptide lead, SEQ ID NO: 14 (NVDQECMTTCTRLRECQLLL)” had an IC50 of 78.4 nM.
For the molecule “2Hd7-2 (CVAMTSCEKLRSCLLL) [Peptide 2Hd7-2]”, the IC50 came out at 19.6 nM. This IC50 lies about 4-fold lower than the previous one.
The molecule LB882 (GEVCLTSCERLR) had an IC50 of 14.9 nM.
With “3H857-13 (VEAGEVCLTLCEKLM) [Peptide 3H857-13]”, the IC50 came to 167 nM.

The test system of the next assay is Apo-2L.0 and DR5. In words: IC50.
Details: not given
From the text:
Table printed on a drawing sheet, FIG._4C
Title: Step 3: Truncation Scan
The patent's description of the figure: FIGS. 4A-4D provide illustrations of the protocols used to modify Apo-2L receptor binding peptides.
Where the first naming reader finds the target: passage: inhibit the interaction between Apo-2L.0 (amino acids 114 to 281 of SEQ ID NO: 1) and DR5 (SEQ ID NOs: 105 and 109)
For EVCMTSCEKLMSA [C1-13], the IC50 worked out at 49 nM. This lies in the double-digit nanomolar range.
EVCMTSCEKLMSAL [C1-14] displayed an IC50 of 39 nM.
EVCMTSCEKLMSALSL had an IC50 of 79 nM.
Same read-out and setting: for EVCMTSCEKLM [C1-11*] the value was 2940 nM.

For the origin of these results see US20070066800A1, “Apo2l(trail) receptor binding peptides and uses thereof” (priority 2003, published 2007).
